In the nanobody polyreactivity screen of Harvey et al. (2022):

Assay: yeast display, Sf9 membrane polyspecificity reagent, FACS + sequencing; frameworks hold sequencing errors
Summary of the method: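 Nanobodies from a synthetic yeast display library (Saccharomyces cerevisiae BJ5465), induced 36–48 hours with galactose, were stained 1 hour at 4 °C with 10% biotinylated, detergent-solubilized Sf9 membrane reagent, enriched on streptavidin microbeads, then FACS-sorted. Anti-HA (expression) and streptavidin (reagent binding) fluorescence set low and high (top ~1%) gates. Polyreactivity labels come from the gate of origin. Genes were colony-PCR amplified, MiSeq 2 × 250 sequenced and filtered by CDR length.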

With “QVQLVESGGGLVQAGGSLRLSCAASGSTFSHYAMGWYRQATGKERELVAAISKSGGITYYADSVKGRFTISRDNAKNTVYLQMNSLKPEDTAVYYCNARWSWRGTRYDYGYWGQGTQVTVSS” the “polyreactivity (PSR sort gate)” value was “low polyreactivity”.

For “QVHLVESGGGLVQAGGSLRLSCAASGSTFVHYAMGWYRQAPGKERELVADITTGDITNYADSVKGRFTISRDNAKNTVYLQMNSLKQEDTAVYSCNARTRYITSLHQYSLDYWGQGSQVTVSS”, the “polyreactivity (PSR sort gate)” value was “low polyreactivity”.

In the case of “QFQLVESGGGLVQAGGSLRLSCAASGITFSNYALGWYRQAPGKERELVAAISKRGGSTYYADSVKGRFTISRDNAKTTVDLQMNSLKPEDTAVYYCAADAYNPPYWVDPYDYWGQGTQVTVSS”, the “polyreactivity (PSR sort gate)” value is reported as “high polyreactivity”.

With “QVQLVESGGGLVQAGGSLRLSCAASGFTFRYYAMGWYRQAPGKERELVAAITRRSGSTYYADSVKGRFTISRDNAKNTVYLQMNSLKPEDTAVYYCAARASTIMGSWGQGTQVTVSS” the “polyreactivity (PSR sort gate)” value was “high polyreactivity”.

In the case of “QVQLVESGGGLVQAGGSLRLSCAASGSTFGGYVMGWYRQAPGKERELVAAISGNGASTTYADSVKGRFTISRDNAKNTFYLQMNSLIPEDTAVFYCAAMYRKAHSDYDYWGQGSQVTVSS”, the “polyreactivity (PSR sort gate)” value is reported as “low polyreactivity”.

With “QVQLVESGGGLVQAGGSLRLSCAASGIIFRGNSMGWYRQAPGKERELVAAIRFSGGSTYYADSVKGRFTISRDYAKNTVYLQMNSLKPEDTAVYYFAATRRRYGSTTSEYYYWGQGTQVTVSS” the “polyreactivity (PSR sort gate)” value was “high polyreactivity”.

In the case of “QVQLVESGGGLVQAGGSLRLSCAASGSIYHYYAMGWYRQAPGKERELVAAISWSGGRTNYADSVKGRFTISRDNAKNTVYLQMNSLKPEDTAVYYCAARARYPNWTYYYWGQGTQVTVSS”, the “polyreactivity (PSR sort gate)” value is reported as “high polyreactivity”.

With “QVQLVESGGGLVQAGGSLRLSCAASGRTFSTYAMGWYRQAPGKERELFAAISSGGGRTYYADSVKGRFTISRDNAKNTVYLQMNSLKPEDTAVYYCAADRYFRSRRSYEYWGQGTQVTVSS” the “polyreactivity (PSR sort gate)” value was “low polyreactivity”.

With “QVQLVESGGGLVQAGGSLRLSCAASGSIFVNNAMGWYRQAPGKERELVAAITCSTGSTYYADSVKGRFTISRDNAKNTVYLQMNSLKPEDTAVYYCAATSYTATWRYYYWGQGTQVTVSS” the “polyreactivity (PSR sort gate)” value was “high polyreactivity”.

In the case of “QVQLVESGGGLVQAGGSLRLSCAASGRTFYYNAMGWYRQAPGKERELVAAISWSGGSTYYADSVKGRFTISRDNAKNTVYLQMNSLKPEDTAVYYCAAGAYSYRKYRSYDYWGQGTQVTVSS”, the “polyreactivity (PSR sort gate)” value is reported as “high polyreactivity”.

In the case of “QVQLVESGGGLVQAGGSLRLSCAASGRIFGHYAMGWYIQAPGKERELVAAISRGGSTNYADSVKGRFTISRDNAKNTVYLQINSLKPVDNAVYYCNAAYSDYEYDYWGQGTQVSVSS”, the “polyreactivity (PSR sort gate)” value is reported as “low polyreactivity”.

With “QVQLVESGGGLVQAGGSLRLSCAASGRIFRWYAMGWYRQAPGKERELVATISSSGRTNYADSVKGRFTISRDNAKNTVYLQMNSLKPEDTAVYYCAAEYYLRYRYDYWGQGTQVTVSS” the “polyreactivity (PSR sort gate)” value was “high polyreactivity”.

For “QVQLVESVGGLVQAGGSLRLSCAASGRTLLYNAMGWYRQAPGKERELVAAISRGGSTYYADSVNGRFTISRDNAKNTVYLQMNSLKPEDTAVYYCATGTWRYRYDYWGQGTQVTVSS”, the “polyreactivity (PSR sort gate)” value was “low polyreactivity”.

With “QVQLVESGGGLVQAGRSLRLSCAASGSTSERYDMGWYRQAPGKERELVATITWSGGDTHYADSVKGRFTISRDNAKNSVYLQLNSLKPEDTAVYYCAAEYTFVWGMWYDYWGQGTQVTVSS” the “polyreactivity (PSR sort gate)” value was “low polyreactivity”.

With “QVQLVESGGGLVQAGGSLRLSCAASGSTFYWYAMGWYRQAPGKERELVASITRSGVRTYYADSVKGRFTISRDNAKNTVYLQMNSLKPEDTAVYYCAAERYYFPRSYRYGYWGQGTQVTVSS” the “polyreactivity (PSR sort gate)” value was “low polyreactivity”.

For “QVQLVESGGGLVQAGGSLRLSCAASGSTFPYNVMGWYRPAPGKERELVAAISYSGGNTYYADSVKGRFTISRDNAKNTVYLQMNSLKPEDTAVYYCAKARRGGRGSIKYDYWGQGTQVTVSS”, the “polyreactivity (PSR sort gate)” value was “high polyreactivity”.

In the case of “QVQLVESGGGLVQAGGSLRLSCAASGITFRHNTMGWYRQAPGKERELVSTNYADSVKGRFTISRDNAKNTVYLQMNSLKPEDTAVYYCNADGTFEYDYWGQGTQVTVSS”, the “polyreactivity (PSR sort gate)” value is reported as “low polyreactivity”.

For “QVQLVESGGGLVQAGGSLRISCAASGPTFPLYAMGGNRQAPGKERELVAAIRTGGSTNYADSVKGRFTISRDNAKNTVYLQMNSLKPEDTAVSYCAAVQRTDRSAHYSWGHGTQVTVSS”, the “polyreactivity (PSR sort gate)” value was “low polyreactivity”.

With “QVQLVESGGGLVQAGGSLRLSCAASGSIFFRNAMGWYRQAPGKERELVASITSGGSTYYADSVKGRFTISRDNAKNTVYLLMNSLKPEDTAVFYCAARLWHLSYAGQGGDYWGQGTQVTVSS” the “polyreactivity (PSR sort gate)” value was “low polyreactivity”.

With “QVQLVESGGGLVQAGGSLRLSCAASGIIFLTNAMGWYRQAPGTVRELVAAITAIGGSTYYADSVKGRFTISRDNAKNTVYLQMNSLKPEDTAVYYCAADCSYVYYLYDYWGQGTQVTVSS” the “polyreactivity (PSR sort gate)” value was “low polyreactivity”.

With “QVQLVESGGGLVQAGGSLRFSCAASGSTVYSYAMGWYRQAPGKERELVAAITRGGRTYYADSVKGRFTISRDNAKNTVYFKMNSLKPEDTAVYSCKVVTKFTGRGYDYWGQGSQVTVSS” the “polyreactivity (PSR sort gate)” value was “high polyreactivity”.

With “QVQLVESGGGLVQAGGSLRLSCAASGYTFWHYAMGWYRQAPGKEREFVATISSGGSTYYADSVKGRFTISRDNAMNTVYLQMNSLKPEDTAVYYCAADVDYIGPIYDYWGQGTQVTVSS” the “polyreactivity (PSR sort gate)” value was “low polyreactivity”.

In the case of “QVQLVESGGGLVQAGGSLRLSCAASGSTFYLNDMGWYRQAPGKERELVAAIDWSGGSTYYADSVKGRFTISRDNAKNTVYLQMNSLNPEDTAVYYCAARLVYEWRRLDYFIAWDYWGQGTQVTVSS”, the “polyreactivity (PSR sort gate)” value is reported as “low polyreactivity”.

With “QVQLVESGGGLVQAGGSLRLSCAASGSTFRKYAMGWYRQAPGKEREFVAAITWSTGTTYYADSVKGRFTISRDNAKNNVYLQMNSLKPEDTAVYYSAADSQPPHELDESIEHESWGQGTQVTVSS” the “polyreactivity (PSR sort gate)” value was “low polyreactivity”.

For “QVQLVESGGGLVQSGCSLRLSCAASGRIFDRYAMGSYRQAPGKERELVAAISSSGGSTYYADSVKGRFTISRDHAKNTVYLLMNSLKPEDTAVYYCATGTSRYRHQRDYWGQGTQVTVSS”, the “polyreactivity (PSR sort gate)” value was “high polyreactivity”.

For “QVQLVESGGGLVQAGGSLRLSCAASGFIFRGNAMGWYRQAPGKERELVAAISKSGGRTYYADSVKGRFTISRDNAKNTVYLQMNSLKPEDTAVYYCNVLRMGLGRESDSWGQGTQVTVSA”, the “polyreactivity (PSR sort gate)” value was “high polyreactivity”.

With “QVQLVESGGALVQAGGSLRLSCAASGITFFTNAMGWYRQAPGKERELVAAISSGGRTYYADSVKGRFTISRDNAKNTVYLQMKSLKPEDTAVYYCAKRSYFYPDYYWGQGTQVTVSS” the “polyreactivity (PSR sort gate)” value was “high polyreactivity”.

For “QVQLVESGGGLVQAGGSLRLSCVASGRTFSRYAMGWYRQAPGKERELVAAISLRCGRTKYADSVKGRFTISRDNAKNTVYLQMNSLKPEDTAVYYCAADIYYGYPWRYHAGYYEGFDYWGQGTQVTVSS”, the “polyreactivity (PSR sort gate)” value was “high polyreactivity”.

In the case of “QVQLVESGGGLVQAGGSLRLSCAASGSTFAGHAMGWSRQAPGKERELVAAITFSGGRTDYADSVKGRFTISRDNAKNTVYLQMNSLIPEDTAVYYCAAPADDTVHYQNYYWGQGTQVTVSS”, the “polyreactivity (PSR sort gate)” value is reported as “low polyreactivity”.

In the case of “QVQLVESGGGLFQAGGSLRLSCAASGFTFSFNTMGWYRQAPVKERELVAAIRNNGGGTNYADSVKGRFTISRDKAMNTVYLQMNSLKPEDTAVYYCAADRIYAWFGRLYYWGQGTQVTGSS”, the “polyreactivity (PSR sort gate)” value is reported as “low polyreactivity”.

With “QVQLVESGGGLVQAGGSLRLSCAASGRILYGNAMGWYRQAPGKERELVAAIDTSGGSTYYADSVKGRFTISRDNAKNTVYLQMNSLKPEDTAVYYCAVRAYREFLPIVYKWWWERDHWGQGTQVTVSS” the “polyreactivity (PSR sort gate)” value was “low polyreactivity”.

With “QVQLVESGGGLVQAGGSLRLSCAASGRIYARNAMGWYIQAPGKERELVAAITRGGSTYYADSVKGRFTISRDNAKNTVYLQMNSLKPEDTAVYYCAASYRGSTYKYYYWGQGTQVTVSS” the “polyreactivity (PSR sort gate)” value was “high polyreactivity”.

With “QVQLVESGGGLVQAGGSLRLSCAASGRTFFVNAMGWYRQAPGKERELVAVISTSGGSTSYADSVKGRFTISRDNPKYTVYFQMNSLKPEDTAVYYCAALVLGPYVSSFVYQQDDSWGLGTQVTVSS” the “polyreactivity (PSR sort gate)” value was “high polyreactivity”.

With “QVQLVESGGGLVQAGGSLRLSCAASGITFDYYAMGWYRQAPGIERELVAAIDDSGGSTYYADSVKGRFTISRDNAKNTVYLQMNSLKPEDTAVYYCAAEFFYYEYDYWGQGTQVTVSS” the “polyreactivity (PSR sort gate)” value was “high polyreactivity”.

In the case of “QVQLVESGGGLVQAGGSLRLSCAASGSTFYNYAMGWYRQAPGKERELVAAISSGGGITYYADSVKGRFTISRDNAKNTVYLQMNSLKPEDTAVYYCNVVNYYPKGNNRAQYWFNYWGQGTQVNVSS”, the “polyreactivity (PSR sort gate)” value is reported as “high polyreactivity”.

In the case of “QVQLVESGGGLVQAGGSLRLSCAASGRILTYNAMGWYRQAPGKERELVATISARGSRTYYADSVKGRFTISRDNAKNTVYLQMNSLKPEDTAVYYCNAAVGYYSYSYYTKVGVDYWGQGTQVTVSS”, the “polyreactivity (PSR sort gate)” value is reported as “high polyreactivity”.

With “QVQLVESGGGLVQSGGSLRLSCAASGRTFKSYAMGWYRQAPGKERELVAAITWSGGSTYYADSVKGRFTISRDNAKITVYFQMNSLKPEDTAVYYCAADSVYYYWYGYDYWGQGTQVTVSS” the “polyreactivity (PSR sort gate)” value was “low polyreactivity”.

In the case of “QVQLVESGGGLVQAGGSLRLSCAASGFTFRVYAMGWYRTAPVKEREFVASITWGGGRTYYADSVKGRFTISRDNAKNTVYLLMNSLKPEDTAVYYCAAYGSLDSYVSYYYWGQGTQVTVSS”, the “polyreactivity (PSR sort gate)” value is reported as “high polyreactivity”.

With “QVQLVESGGGLVQAGGSLRLSCAASGLTFLYYAMGWYRQAPGKEREFVAAIDISGGSTYYADSVKGRFTISRDNAKKTVYLQMYSLKPEDTAVYYCAVEPWYYLAGRSQYDYWGQGTQVTVSS” the “polyreactivity (PSR sort gate)” value was “low polyreactivity”.

In the case of “QVQLVESGGGLVQAGGSLRLSCAASGFTFEIYAMGWYRQAPGKERELVAAITWSGGSTDYADSVKGRFTISRDNAKNSVYFQMNSLKPEDTAVYYCAAVTVQYVGYGYWGQGTQVTVSS”, the “polyreactivity (PSR sort gate)” value is reported as “low polyreactivity”.

With “QVQLVESGGGLVQAGCSLRLSCAASGRIFHLYAMGWYTQAPGKERELVAAITGRGGSTYYADSVKGRFTISRDNAKNTVYLQINCLKPEDTAVYYCASYEFGFLRYYSGRSYYYWGQGTQVTVSS” the “polyreactivity (PSR sort gate)” value was “high polyreactivity”.

With “QVQLEESGGGLVQAGGSLRLSCAASGIIFRCYCMGWYRQAPGKDRELVATITSGGRTNYADSVKGRFTISRDKAKNTVYLQMNSLNTEDTAVYYCAAARLFAMDYWGQGTQVTVSS” the “polyreactivity (PSR sort gate)” value was “low polyreactivity”.

In the case of “QVQLVESGGGLVQAGGSLRLSCAASGRIFVTNAMGWSRQGPGKERELVAAISYRGGRTYYADSVKGRFTISRDNAKNTVYLQMNSLKPEDTAVYYCNAVTRWPFDYWGQGTQVTVSS”, the “polyreactivity (PSR sort gate)” value is reported as “high polyreactivity”.
